B1: CPEB3 Ribozyme (parent)
chain: UAACAGGGGGCCACAGCAGAAGCGUUCACGUCGCAGCCCCUGUCAGAUUCUGGUGAAUCUGCGAAUUCUGCUGUAUAUCUC

Variants of: B1
Experiment: self-cleavage, relative activity (ratio to wild type); higher = more cleavage; in vitro, sequencing
How it was run: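 After error-prone PCR and barcoding, CPEB3 ribozyme mutant libraries were transcribed with T7 RNA polymerase at 37°C for 5 hours, then given 15 min with DNase I before an EDTA stop, and they cleaved during both steps. Reverse transcription with template switching preceded Illumina sequencing. Relative activity divides a variant's cleaved/total read fraction by the unmutated ribozyme's. At least 5 reads were required per variant, and three batches were averaged.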

| Variant | self-cleavage |
| --- | --- |
| U1A A3G | 1.1 |
| U1A A3U | 1.2 |
| U1A A3C | 1.09 |
| U1C C11G | 0.43 |
| U1C C11U | 0.36 |
| U1A C59U | 0.46 |
| U1A U76C | 1.04 |
| U1C A47U | 0.47 |
| U1C A47G | 0.9 |
| U1C A56U | 0.52 |
| U1C A56G | 0.73 |
| U1A G52A | 1.1 |
| U1A G63A | 0.89 |
| U1A C29U | 0.52 |
| U1C C12U | 1.22 |
| U1A C11G | 0.49 |
| U1A C11U | 0.46 |
| U1A G73U | 1.44 |
| U1A G73A | 1.21 |
| U1A U74C | 1.18 |
| U1A U74A | 1.25 |
| U1A A57G | 0.77 |
| U1A U41C | 0.89 |
| U1A U41A | 0.2 |

| Variant | self-cleavage |
| --- | --- |
| U1A U41G | 0.27 |
| U1A G7A | 0.1 |
| U1A G7U | 0.3 |
| U1A U72G | 0.75 |
| U1A U72A | 0.55 |
| U1A U72C | 1.02 |
| U1A G36C | 0.09 |
| U1A G36A | 0.29 |
| U1A G9A | 0.28 |
| U1A G9C | 0.1 |
| U1A G24A | 0.25 |
| U1A C14A | 1.17 |
| U1A U80C | 1.14 |
| U1A C50A | 0.47 |
| U1A U78C | 0.91 |
| U1A U78A | 0.99 |
| U1A U54A | 1.14 |
| U1A U54C | 1.08 |
| U1A U54G | 0.76 |
| U1A A2G | 0.87 |
| U1A A2U | 1.09 |
| U1A C27A | 0.22 |
| U1A A56G | 0.71 |
| U1A A56U | 0.61 |

| Variant | self-cleavage |
| --- | --- |
| U1A U51C | 0.92 |
| U1A U51A | 0.95 |
| U1A A28U | 0.88 |
| U1C A64G | 0.8 |
| U1C A64U | 0.26 |
| U1A U49A | 0.58 |
| U1A U49C | 0.52 |
| U1A G61C | 0.29 |
| U1A U25C | 0.41 |
| U1A U25A | 0.34 |
| U1A C23U | 0.22 |
| U1A C23G | 0.1 |
| U1A A77G | 1.12 |
| U1A A77U | 1.05 |
| U1A A65G | 0.48 |
| U1A A65C | 0.12 |
| U1A U48C | 0.63 |
| U1C A5C | 0.82 |
| U1C A5U | 1.02 |
| U1C A5G | 0.68 |
| U1C A3G | 0.9 |
| U1C A3U | 0.83 |
| U1A C37G | 1.04 |
| U1A C37A | 0.31 |

| Variant | self-cleavage |
| --- | --- |
| U1C A77G | 0.91 |
| U1C A77U | 0.97 |
| U1A A64U | 0.28 |
| U1A A64G | 0.84 |
| U1A U58C | 0.66 |
| U1A U58A | 0.29 |
| U1C A65U | 0.31 |
| U1C A65G | 0.42 |
| U1A A5U | 0.97 |
| U1A A5G | 0.68 |
| U1A U60C | 0.35 |
| U1A U60A | 0.56 |
| U1C A75G | 0.79 |
| U1C A75U | 1.05 |
| U1A C38U | 0.97 |
| U1A C38A | 0.35 |
| U1A C38G | 0.45 |
| U1A G8A | 0.19 |
| U1A G30A | 0.11 |
| U1A U69C | 0.61 |
| U1A U69A | 0.54 |
| U1A G22A | 0.23 |
| U1C A35U | 0.33 |
| U1C A35G | 1.24 |

| Variant | self-cleavage |
| --- | --- |
| U1C A35C | 0.71 |
| U1A G46A | 0.43 |
| U1A U26C | 0.47 |
| U1A U26A | 1.02 |
| U1A G10C | 0.36 |
| U1A G10A | 0.25 |
| U1C A18C | 1.09 |
| U1C A18U | 0.36 |
| U1C A18G | 0.48 |
| U1A A13U | 1.16 |
| U1A A13G | 0.8 |
| U1A G16A | 0.38 |
| U1C C14U | 1.07 |
| U1A U43A | 1.08 |
| U1A U43C | 0.58 |
| U1A U43G | 0.54 |
| U1A A35U | 0.49 |
| U1A A35G | 1.25 |
| U1A C32G | 0.09 |
| U1A C32U | 0.3 |
| U1C A13U | 1.13 |
| U1C A13G | 0.79 |
| U1C | 0.84 |
| U1A | 0.98 |

| Variant | self-cleavage |
| --- | --- |
| U1A A75G | 0.9 |
| U1A A75U | 1.14 |
| U1A U31C | 0.65 |
| U1A U31A | 0.64 |
| U1C A28U | 0.67 |
| U1C A28G | 0.55 |
| U1A A20U | 0.32 |
| U1A A20G | 0.72 |
| U1A G6A | 0.27 |
| U1A U66C | 0.4 |
| U1A U66A | 0.42 |
| U1A U67C | 0.18 |
| U1A G33A | 0.28 |
| U1C A57G | 0.85 |
| U1A A45U | 0.41 |
| U1A A45G | 0.75 |
| U1A C68U | 0.82 |
| U1A C68A | 0.41 |
| U1A C81U | 1.11 |
| U1C C23A | 0.22 |
| U1C A21U | 0.3 |
| U1C A21C | 0.35 |
| U1C A21G | 0.24 |
| U1C A2C | 0.94 |

| Variant | self-cleavage |
| --- | --- |
| U1C A2G | 0.8 |
| U1C A2U | 1.04 |
| U1A C12G | 0.43 |
| U1A C12U | 1.2 |
| U1A C12A | 1.14 |
| U1A A15U | 0.69 |
| U1A A15G | 0.72 |
| U1C A15U | 0.55 |
| U1C A15G | 0.6 |
| U1C A15C | 0.62 |
| U1C A20G | 0.59 |
| U1C A20U | 0.29 |
| U1A A47G | 1.01 |
| U1A A47U | 0.78 |
| U1A A21C | 0.28 |
| U1A A21G | 0.55 |
| U1A A21U | 0.27 |
| U1C A45C | 0.16 |
| U1C A45G | 0.81 |
| U1C A45U | 0.39 |
| U1A A18C | 0.53 |
| U1A A18U | 0.41 |
| U1A A18G | 0.57 |

From the RNAGym collection of RNA variant scans (doi:10.1093/nar/gkz1192)
